Assay results taken from patent publication US20260056186A1 (JIANGSU HENGRUI PHARMACEUTICALS, published 2026).

What was measured:
[1] = biological target: T1, APRIL (Acro Biosystems, Cat: APL-H52D1) (UniProt O75888 115-250, limits assumed); experiment: ELISA, APRIL coated at 1 ug/mL, anti-human Fc-HRP, OD450
T1 construct: also called ARPIL
T1 sequence (looked up): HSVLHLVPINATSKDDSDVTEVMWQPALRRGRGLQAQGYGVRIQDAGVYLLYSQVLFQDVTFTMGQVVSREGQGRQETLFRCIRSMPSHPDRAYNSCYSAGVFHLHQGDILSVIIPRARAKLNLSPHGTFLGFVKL

[2] = biological target: recombinant human BAFF (R&D cat: 7537-BF-025/CF) (human, UniProt Q9Y275 134-285); experiment: cell-based or functional assay
Sequence of recombinant human BAFF (R&D cat: 7537-BF-025/CF) (Q9Y275 134-285 limits assumed): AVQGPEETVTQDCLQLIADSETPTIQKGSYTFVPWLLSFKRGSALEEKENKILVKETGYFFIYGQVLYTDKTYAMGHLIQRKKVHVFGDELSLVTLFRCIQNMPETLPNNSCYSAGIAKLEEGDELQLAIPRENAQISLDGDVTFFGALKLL

B1: Telitacicept (RCT-18) (Fc fusion)
chain: SRVDQEERFPQGLWTGVAMRSCPEEQYWDPLLGTCMSCKTICNHQSQRTCAAFCRSLSCRKEQGKFYDHLLRDCISCASICGQHPKQCAYFCENKLRSPVNLPPELDKTHTCPPCPAPEAEGAPSVFLFPPKPKDTLMISRTPEVTCVVVDVSHEDPEVKFNWYVDGVEVHNAKTKPREEQYNSTYRVVSVLTVLHQDWLNGKEYKCKVSNKALPSSIEKTISKAKGQPREPQVYTLPPSRDELTKNQVSLTCLVKGFYPSDIAVEWESNGQPENNYKTTPPVLDSDGSFFLYSKLTVDKSRWQQGNVFSCSVMHEALHNHYTQKSLSLSPGK
notes: Positive control TACI-Fc; also called RC18
Question: B1 was tested. Which EC50 [1] did it give?
Answer: 0.536 nM

Question: And the Emax [1]?
Answer: 2.98

Question: And the “Flow cytometry proliferating B cell proportion (%), mean value, BAFF-induced, drug at 10 nM (IgG1: 40.15)” value [2]?
Answer: 36%

Question: And the “Flow cytometry proliferating B cell proportion (%), mean value, BAFF-induced, drug at 100 nM (IgG1: 40.60)” value [2]?
Answer: 30.7%

Question: What about the “Flow cytometry proliferating B cell proportion (%), mean value, BAFF-induced, drug at 1000 nM (IgG1: 33.97)” value [2] of the same binder?
Answer: 24.3%
